Laboratory results: PMC8928829 (mAbs, 2022)

B1: NIH-CoVnb-112 (VHH)
VHH: DVQLQESGGGLVQPGGSLRLSCAASGLTLDYYAIGWFRQAPGKEREGVSCISSSDGSTYYADSVKGRFTTSRDNAKNTVYLQMNSLKPEDTAVYYCAAVPSTYYSGTYYYTCHPGGMDYWGKGTQVTVSS
B2: NIH-CoVnb-112 (VHH)
VHH: B1 VHH

What was measured:
Settings in all cases: both partners purified
[1] = molecular target: recombinant SARS-CoV-2 RBD, prototype (BLI) (SARS-CoV-2, prototype (Wuhan-Hu-1), UniProt P0DTC2); assay: BLI
[2] = molecular target: T1, SARS-CoV-2 RBD (prototype), construct made for crystallography (SARS-CoV-2, prototype (Wuhan-Hu-1)); assay: crystal structure
T1 construct: also called prototype SARS-CoV-2 RBD; SARS-CoV-2 RBD (319-537)

[3] = molecular target: SARS-CoV-2 RBD, prototype (SARS-CoV-2, prototype (Wuhan-Hu-1), UniProt P0DTC2); assay: BLI

Row | Binder | Kd [1] [nM] | koff [1] [s⁻¹] | binding result [2] | kon [3] [M⁻¹ s⁻¹]
1 | B1 | 1.59 | 0.000236 | binds | –
2 | B2 | – | – | – | 223000
